Values belong to the compound of their own block, whether it stands above or below them.
Columns and labels:
STAT1-FRB and STAT1-FKBP = target: T1, STAT1-FRB and STAT1-FKBP (Homo sapiens, UniProt P42224+P42345+P62942); test: USDDS: AP21967-induced in vivo SUMOylation of STAT1 fusion proteins, western blot; assay type: cell-based; conditions: HEK293
T1 construct: seven C-terminal amino acids of the human STAT1a in the STAT1-FKBP/FRB fusion proteins are missing; FKBP domain (in STAT1-FKBP); expressed in transfected cells; host or cells: HEK293
Text: (§1) To identify new SUMOylation substrates and to study the function of SUMOylation the Ubc9/substrate dimerisation-dependent SUMOylation system (USDDS) was developed which consists of fusions of the SUMOylation substrate and of the SUMO-conjugating enzyme Ubc9 to the chemically activatable heterodimerisation domains FKBP and FRB, respectively, as shown in FIG. 2. When the substrate protein fused to FKBP is coexpressed with Ubc9-FRB, treatment of HEK293 cells with the rapamycin-related dimerizer AP21967 induces SUMOylation of the substrate protein fused to FKBP at its specific SUMOylation site. […] Dependent on an EcoRl site in the coding sequence, seven C-terminal amino acids of the human STAT1a in the STAT1-FKBP/FRB fusion proteins are missing. For the SUMOylation analysis HEK293 (human embryonic kidney cells) cells have been used. HEK293 cells were cultured in Dulbecco's modified Eagle's medium with high glucose, complemented with 10% fetal calf serum, 2 mM L-glutamine, 100 U/ml penicillin and […] streptomycin. We performed transfection of HEK293 cells using the polyethylenimine transfection reagent. HEK293 cells of a fresh confluent 10 cm plate were transferred on a 12-well plate. […]
(§2) When p53-FRB or STAT1-FRB were coexpressed with Ubc9-FKBP together with EGFP-SUMO1, no significant EGFP-SUMO1 conjugation of STAT1-FRB and of p53-FRB could be detected (FIG. 3A,B). […]

p53-FRB and p53-FKBP = test: USDDS: AP21967-induced in vivo SUMOylation of p53 fusion proteins, western blot; assay type: cell-based, human; conditions: HEK293
Text: as §1, §2

p53-U = target: T2, p53-U (Homo sapiens, UniProt P04637+P63279); test: Trans-SUMOylation by p53-U; assay type: cell-based; conditions: western blot
T2 construct: expressed in transfected cells; host or cells: HEK293

U-MK2 = target: T3, U-MK2 (Homo sapiens, UniProt P49137+P63279); test: Trans-SUMOylation by U-MK2; assay type: cell-based; conditions: protein 2 construct coexpressed with U-MK2 and EGFP-SUMO1 in HEK293
T3 construct: expressed in transfected cells; host or cells: HEK293

U-p38α = target: T4, U-p38α (Homo sapiens, UniProt P63279+Q16539); test: Trans-SUMOylation by U-p38α; assay type: cell-based; conditions: protein 2 construct coexpressed with U-p38α and EGFP-SUMO1 in HEK293
T4 construct: expressed in transfected cells; host or cells: HEK293

U-MK5 = target: T5, U-MK5 (Homo sapiens, UniProt P63279+Q8IW41); test: Trans-SUMOylation by U-MK5; assay type: cell-based; parameters: key: (++), strong TransSUMOylation; (+), TransSUMOylation; (+/−) weak TransSUMOylation; (−) no detectable TransSUMOylation; conditions: protein 2 construct coexpressed with U-MK5 and EGFP-SUMO1 in HEK293, western blot
T5 construct: expressed in transfected cells; host or cells: HEK293
Text: To identify new SUMOylation substrates and to study the function of SUMOylation the Ubc9/substrate dimerisation-dependent SUMOylation system (USDDS) was developed which consists of fusions of the SUMOylation substrate and of the SUMO-conjugating enzyme Ubc9 to the chemically activatable heterodimerisation domains FKBP and FRB, respectively, as shown in FIG. 2. When the substrate protein fused to FKBP is coexpressed with Ubc9-FRB, treatment of HEK293 cells with the rapamycin-related dimerizer AP21967 induces SUMOylation of the substrate protein fused to FKBP at its specific SUMOylation site. […] Dependent on an EcoRl site in the coding sequence, seven C-terminal amino acids of the human STAT1a in the STAT1-FKBP/FRB fusion proteins are missing. For the SUMOylation analysis HEK293 (human embryonic kidney cells) cells have been used. HEK293 cells were cultured in Dulbecco's modified Eagle's medium with high glucose, complemented with 10% fetal calf serum, 2 mM L-glutamine, 100 U/ml penicillin and […] streptomycin. We performed transfection of HEK293 cells using the polyethylenimine transfection reagent. HEK293 cells of a fresh confluent 10 cm plate were transferred on a 12-well plate. After 12-24 h incubation about 70% cell confluence is reached. For each well 45 μl of serum/antibiotic free DMEM medium is mixed with 750 ng of the transfection-purity expression vector DNA (all together 47 μl) and vortexed. Then, 3 μl of vortexed polyethylenimin stock solution (1 mg/ml) is added and the mixture is vortexed. After incubation at room temperature for 10 min 450 μl fresh DMEM with antibiotics is added to the mixture and vortexed. The medium on the cells was then completely removed and immediately, the 500 μl transfection mix was added carefully to each well. The 12 well plate was rocked to ensure a proper distribution of the DNA/transfection reagent complex. After an incubation of the cells for 24 h at a 37° C. in a humidified CO2-incubator (5%) the cells were lysed in 150 μl Laemmli (2×) gel loading buffer (160 mM Tris-HCL, pH 6.8, 4% (w/v) sodium dodecyl sulphate (SDS), 20% (v/v) glycerol, 0.5% β-mercaptoethanol (v/v), 0.008% (w/v) bromophenol blue) and incubated for 10 min at 95° C. For western blot analysis the proteins were separated by SDS-PAGE, blotted on a PVDF membrane and developed with specific primary antibodies (α-Ubc9 (H81, Santa Cruz), α-pY701-STAT1 (Tyr701, Cell Signaling), α-STAT1 (Cell Signaling), α-p53 (1C12, Cell Signaling), α-SUMO1 (Cell Signaling), a horseradish peroxidase (HRP)-conjugated secondary antibody (different companies), the ECL+ (Amersham) or Immobilon™ Western (Millipore) and the LAS-3000 imaging system (Fuji).
As shown above, the SUMOylation of a protein of interest can be induced by the heterodimerisation with a binding protein fused to Ubc9. To find out if Trans-SUMOylation is useful for the characterisation of common protein interactions, protein binding pairs well known from the literature or found in two hybrid screens. […] Therefore the protein pairs were coexpressed with EGFP-SUMO1 in HEK293 cells and after 24h the transfectants were lysed and the protein extracts were analyzed in western blots.
Protein-protein interactions described in the cited references were tested for Trans-SUMOylation. Each specific protein-protein interaction was tested by coexpression of different combinations of protein 1 fused to Ubc9 (U) with protein 2 mostly fused two a tag (HA, FLAG, Myc, GST, ST). (++), strong TransSUMOylation; (+), TransSUMOylation; (+/−) weak TransSUMOylation; (−) no detectable TransSUMOylation; (MEKK1ca) the activated MAP3 kinase MEKK1, that can enhance protein SUMOylation, was coexpressed.
Protein-protein interaction of each pair of protein 1/protein 2 was tested by coexpression of different combinations of a protein 1 fused to Ubc9 (U) with protein 2 mostly fused two a Tag (HA, FLAG, GST, ST). […]

JUN-U = target: T6, JUN-U (Homo sapiens, UniProt P05412+P63279); test: Trans-SUMOylation by JUN-U; assay type: cell-based; conditions: protein 2 construct coexpressed with JUN-U and EGFP-SUMO1 in HEK293; western blot; Table 2
T6 construct: expressed in transfected cells; host or cells: HEK293

U-CSNK2B = target: T7, U-CSNK2B (Homo sapiens, UniProt P63279+P67870); test: Trans-SUMOylation by U-CSNK2B; assay type: cell-based; parameters: key: (++), strong TransSUMOylation; (+), TransSUMOylation; (+/−) weak TransSUMOylation; (−) no detectable TransSUMOylation; conditions: protein 2 construct coexpressed with U-CSNK2B and EGFP-SUMO1 in HEK293, western blot
T7 construct: expressed in transfected cells; host or cells: HEK293
Text: as §1, with “plate. After 12-24 h incubation about 70% cell confluence is reached. For each well 45 μl of serum/antibiotic free DMEM medium is mixed with 750 ng of the transfection-purity expression vector DNA (all together 47 μl) and vortexed. Then, 3 μl of vortexed polyethylenimin stock solution (1 mg/ml) is added and the mixture is vortexed. After incubation at room temperature for 10 min 450 μl fresh DMEM with antibiotics is added to the mixture and vortexed. The medium on the cells was then completely removed and immediately, the 500 μl transfection mix was added carefully to each well.” for “plate.”
(§3) As shown above, the SUMOylation of a protein of interest can be induced by the heterodimerisation with a binding protein fused to Ubc9. […] Therefore the protein pairs were coexpressed with EGFP-SUMO1 in HEK293 cells and after 24h the transfectants were lysed and the protein extracts were analyzed in western blots. […]

MK2-U = target: T8, MK2-U (Homo sapiens, UniProt P49137+P63279); test: Trans-SUMOylation by MK2-U; assay type: cell-based; conditions: protein 2 construct coexpressed with MK2-U and EGFP-SUMO1 in HEK293
T8 construct: expressed in transfected cells; host or cells: HEK293

U-PSMC3 = target: T9, U-PSMC3 (Homo sapiens, UniProt P17980+P63279); test: Trans-SUMOylation by U-PSMC3; assay type: cell-based; parameters: key: (++), strong TransSUMOylation; (+), TransSUMOylation; (+/−) weak TransSUMOylation; (−) no detectable TransSUMOylation; conditions: protein 2 construct coexpressed with U-PSMC3 and EGFP-SUMO1 in HEK293; western blot; Table 1
T9 construct: expressed in transfected cells; host or cells: HEK293
Text: as §1, with “streptomycin.” for “streptomycin. We performed transfection of HEK293 cells using the polyethylenimine transfection reagent. HEK293 cells of a fresh confluent 10 cm plate were transferred on a 12-well plate.”
as §3

CSNK2B-U = target: T10, CSNK2B-U (Homo sapiens, UniProt P63279+P67870); test: Trans-SUMOylation by CSNK2B-U; assay type: cell-based; conditions: protein 2 construct coexpressed with CSNK2B-U and EGFP-SUMO1 in HEK293; MEKK1ca coexpressed; Table 1
T10 construct: expressed in transfected cells; host or cells: HEK293

[1] = protein 2 construct coexpressed with P53-U (p53-U) and EGFP-SUMO1 in HEK293, Table 1

T4 sequence (P63279+Q16539 fused): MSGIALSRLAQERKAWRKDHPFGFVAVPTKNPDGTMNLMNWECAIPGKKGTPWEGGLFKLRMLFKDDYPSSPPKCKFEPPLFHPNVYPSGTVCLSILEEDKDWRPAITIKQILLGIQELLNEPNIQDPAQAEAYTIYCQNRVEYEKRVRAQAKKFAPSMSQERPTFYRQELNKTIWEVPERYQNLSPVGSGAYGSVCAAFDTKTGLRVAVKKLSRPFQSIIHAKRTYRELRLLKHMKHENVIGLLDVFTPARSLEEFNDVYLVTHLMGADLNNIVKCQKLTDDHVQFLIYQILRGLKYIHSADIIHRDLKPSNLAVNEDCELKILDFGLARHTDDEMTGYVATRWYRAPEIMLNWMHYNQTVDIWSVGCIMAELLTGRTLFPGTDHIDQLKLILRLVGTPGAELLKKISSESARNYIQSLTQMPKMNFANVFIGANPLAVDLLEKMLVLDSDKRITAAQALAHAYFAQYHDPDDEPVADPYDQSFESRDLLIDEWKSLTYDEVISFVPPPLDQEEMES
T3 sequence (P63279+P49137 fused): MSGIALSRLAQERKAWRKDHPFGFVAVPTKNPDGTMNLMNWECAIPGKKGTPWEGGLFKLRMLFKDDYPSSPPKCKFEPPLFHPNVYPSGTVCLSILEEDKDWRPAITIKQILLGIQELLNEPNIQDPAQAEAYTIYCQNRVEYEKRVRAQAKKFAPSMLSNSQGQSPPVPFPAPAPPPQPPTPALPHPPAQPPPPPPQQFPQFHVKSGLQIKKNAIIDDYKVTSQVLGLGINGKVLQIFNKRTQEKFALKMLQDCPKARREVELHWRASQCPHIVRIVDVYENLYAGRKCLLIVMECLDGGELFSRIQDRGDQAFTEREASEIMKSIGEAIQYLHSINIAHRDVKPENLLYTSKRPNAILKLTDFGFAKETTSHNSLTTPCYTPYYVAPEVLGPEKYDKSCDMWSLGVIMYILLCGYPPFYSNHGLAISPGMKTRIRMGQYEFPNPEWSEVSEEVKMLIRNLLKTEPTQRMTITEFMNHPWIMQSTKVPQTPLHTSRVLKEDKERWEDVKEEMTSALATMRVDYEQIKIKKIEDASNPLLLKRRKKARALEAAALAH
T5 sequence (P63279+Q8IW41 fused): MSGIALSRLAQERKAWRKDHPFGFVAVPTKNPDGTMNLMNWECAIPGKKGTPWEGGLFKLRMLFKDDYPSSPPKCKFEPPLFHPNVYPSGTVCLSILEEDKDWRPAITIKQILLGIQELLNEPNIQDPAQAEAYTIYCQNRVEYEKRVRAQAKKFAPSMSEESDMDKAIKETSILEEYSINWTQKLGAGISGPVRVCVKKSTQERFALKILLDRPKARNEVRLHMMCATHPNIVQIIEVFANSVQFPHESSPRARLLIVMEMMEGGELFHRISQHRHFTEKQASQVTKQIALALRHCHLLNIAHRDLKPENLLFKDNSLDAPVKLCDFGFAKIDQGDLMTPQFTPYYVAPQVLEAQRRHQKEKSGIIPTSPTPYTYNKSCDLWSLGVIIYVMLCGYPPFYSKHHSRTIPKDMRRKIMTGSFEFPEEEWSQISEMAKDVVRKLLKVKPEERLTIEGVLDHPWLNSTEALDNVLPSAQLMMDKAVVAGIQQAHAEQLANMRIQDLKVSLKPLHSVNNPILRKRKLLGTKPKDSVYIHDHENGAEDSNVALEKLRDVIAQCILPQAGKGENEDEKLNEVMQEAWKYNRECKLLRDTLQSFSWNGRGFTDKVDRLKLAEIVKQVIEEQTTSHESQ
T8 sequence (P49137+P63279 fused): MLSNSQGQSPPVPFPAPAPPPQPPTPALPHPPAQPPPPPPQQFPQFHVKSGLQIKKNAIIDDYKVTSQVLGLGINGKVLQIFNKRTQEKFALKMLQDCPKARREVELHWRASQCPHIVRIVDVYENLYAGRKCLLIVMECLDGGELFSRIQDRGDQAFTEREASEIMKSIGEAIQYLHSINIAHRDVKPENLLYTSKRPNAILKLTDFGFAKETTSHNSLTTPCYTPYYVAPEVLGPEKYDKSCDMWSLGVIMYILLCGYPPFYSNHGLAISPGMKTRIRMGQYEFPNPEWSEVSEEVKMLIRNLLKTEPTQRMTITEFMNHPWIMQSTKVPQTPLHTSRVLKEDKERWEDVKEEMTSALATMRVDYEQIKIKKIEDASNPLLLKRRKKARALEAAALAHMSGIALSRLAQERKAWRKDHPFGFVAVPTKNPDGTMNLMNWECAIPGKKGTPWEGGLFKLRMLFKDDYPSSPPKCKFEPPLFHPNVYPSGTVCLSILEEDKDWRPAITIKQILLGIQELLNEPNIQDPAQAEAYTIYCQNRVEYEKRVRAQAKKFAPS
T6 sequence (P05412+P63279 fused): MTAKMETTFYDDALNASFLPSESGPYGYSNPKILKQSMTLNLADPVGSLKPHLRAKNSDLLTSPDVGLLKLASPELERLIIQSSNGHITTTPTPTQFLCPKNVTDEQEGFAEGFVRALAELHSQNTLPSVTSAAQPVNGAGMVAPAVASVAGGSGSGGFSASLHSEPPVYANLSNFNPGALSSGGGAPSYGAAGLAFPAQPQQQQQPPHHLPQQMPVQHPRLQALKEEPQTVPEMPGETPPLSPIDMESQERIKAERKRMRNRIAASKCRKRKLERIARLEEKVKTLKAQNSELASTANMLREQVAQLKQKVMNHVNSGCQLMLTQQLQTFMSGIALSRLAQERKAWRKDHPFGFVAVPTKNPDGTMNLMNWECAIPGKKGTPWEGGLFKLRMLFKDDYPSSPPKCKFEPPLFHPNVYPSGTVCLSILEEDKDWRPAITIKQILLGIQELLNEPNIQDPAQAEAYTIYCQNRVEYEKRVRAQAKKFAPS
T1 sequence (P42224 1-743 limits assumed): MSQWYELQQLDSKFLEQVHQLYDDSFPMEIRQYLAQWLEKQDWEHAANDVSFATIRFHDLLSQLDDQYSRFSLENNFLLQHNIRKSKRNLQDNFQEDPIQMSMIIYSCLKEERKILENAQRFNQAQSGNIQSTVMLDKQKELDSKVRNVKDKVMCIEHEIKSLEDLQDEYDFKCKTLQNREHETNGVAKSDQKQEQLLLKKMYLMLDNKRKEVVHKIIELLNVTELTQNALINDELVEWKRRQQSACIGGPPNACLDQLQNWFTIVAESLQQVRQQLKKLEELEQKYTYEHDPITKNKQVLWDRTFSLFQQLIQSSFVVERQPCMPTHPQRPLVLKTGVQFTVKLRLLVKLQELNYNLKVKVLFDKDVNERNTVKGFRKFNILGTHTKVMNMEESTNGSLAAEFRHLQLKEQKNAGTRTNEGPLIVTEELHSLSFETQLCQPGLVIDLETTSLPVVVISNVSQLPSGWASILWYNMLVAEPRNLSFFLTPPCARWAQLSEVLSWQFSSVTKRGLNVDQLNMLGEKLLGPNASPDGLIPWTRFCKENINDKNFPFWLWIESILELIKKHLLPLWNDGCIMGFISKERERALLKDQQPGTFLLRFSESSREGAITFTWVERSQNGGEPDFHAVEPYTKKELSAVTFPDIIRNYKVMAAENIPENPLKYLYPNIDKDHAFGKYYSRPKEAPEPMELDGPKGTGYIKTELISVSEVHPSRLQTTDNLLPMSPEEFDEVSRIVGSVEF
T1 sequence (P63279 whole entry partner, the tested form may be a part): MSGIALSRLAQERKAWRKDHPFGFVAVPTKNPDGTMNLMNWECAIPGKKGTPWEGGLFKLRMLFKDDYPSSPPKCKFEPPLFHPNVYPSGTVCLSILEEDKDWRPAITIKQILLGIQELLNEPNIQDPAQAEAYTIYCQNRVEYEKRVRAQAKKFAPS
T1 sequence (P62942 2-108 limits assumed): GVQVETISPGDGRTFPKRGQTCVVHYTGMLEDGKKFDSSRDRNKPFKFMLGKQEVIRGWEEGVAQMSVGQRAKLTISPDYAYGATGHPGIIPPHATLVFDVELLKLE
T1 sequence (P42345 2021-2113 limits assumed): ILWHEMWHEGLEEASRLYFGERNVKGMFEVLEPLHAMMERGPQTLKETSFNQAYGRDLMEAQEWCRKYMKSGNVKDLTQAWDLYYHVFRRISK
T7 sequence (P63279+P67870 fused): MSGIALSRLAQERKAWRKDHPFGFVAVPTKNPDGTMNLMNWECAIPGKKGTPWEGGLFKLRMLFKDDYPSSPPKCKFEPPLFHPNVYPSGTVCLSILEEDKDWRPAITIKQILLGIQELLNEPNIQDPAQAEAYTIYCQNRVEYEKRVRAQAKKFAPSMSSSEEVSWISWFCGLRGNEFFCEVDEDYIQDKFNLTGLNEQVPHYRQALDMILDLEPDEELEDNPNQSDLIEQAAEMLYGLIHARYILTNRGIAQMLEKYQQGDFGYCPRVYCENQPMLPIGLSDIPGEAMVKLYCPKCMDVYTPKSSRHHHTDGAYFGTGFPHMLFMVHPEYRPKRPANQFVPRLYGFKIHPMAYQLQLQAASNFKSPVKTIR
T9 sequence (P63279+P17980 fused): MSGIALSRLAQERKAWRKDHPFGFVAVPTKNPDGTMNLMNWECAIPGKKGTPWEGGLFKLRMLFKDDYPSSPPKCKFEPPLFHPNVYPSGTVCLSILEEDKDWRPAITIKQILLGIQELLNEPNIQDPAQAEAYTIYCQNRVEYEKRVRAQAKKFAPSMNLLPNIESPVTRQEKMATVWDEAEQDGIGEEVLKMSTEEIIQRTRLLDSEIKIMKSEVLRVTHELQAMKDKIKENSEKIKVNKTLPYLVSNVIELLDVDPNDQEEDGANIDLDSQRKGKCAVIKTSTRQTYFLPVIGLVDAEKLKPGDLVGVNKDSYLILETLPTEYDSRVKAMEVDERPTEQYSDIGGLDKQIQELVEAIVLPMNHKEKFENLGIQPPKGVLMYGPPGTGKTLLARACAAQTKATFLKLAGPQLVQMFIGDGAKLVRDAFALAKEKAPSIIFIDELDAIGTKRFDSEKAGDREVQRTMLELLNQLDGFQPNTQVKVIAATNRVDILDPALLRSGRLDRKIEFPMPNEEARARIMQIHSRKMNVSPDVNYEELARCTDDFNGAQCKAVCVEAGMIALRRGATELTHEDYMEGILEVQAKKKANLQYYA

Compound: FLAG-p38α: p38α fused to FLAG tag
Trans-SUMOylation (p53-U; [1]): −
Trans-SUMOylation (U-MK5; Table 1): +
Trans-SUMOylation (JUN-U): −
Trans-SUMOylation (U-MK2; western blot, Table 1): +
Trans-SUMOylation (U-CSNK2B; Table 1): −
Trans-SUMOylation (MK2-U; western blot, Table 1): +

Compound: GST-FOS: FOS fused to GST tag
Trans-SUMOylation (MK2-U; western blot, Table 2): −

Compound: GST-MK2: MK2 fused to GST tag
Trans-SUMOylation (p53-U; protein 2 construct coexpressed with p53-U and EGFP-SUMO1 in HEK293, Table 2): −
Trans-SUMOylation (U-MK5; Table 2): (+/−)
Trans-SUMOylation (JUN-U): −
Trans-SUMOylation (U-MK2; MEKK1 coexpressed, Table 2): ++ (MEKK1)
Trans-SUMOylation (U-MK2; western blot, Table 2): +
Trans-SUMOylation (U-CSNK2B; Table 2): (+/−)
Trans-SUMOylation (U-p38α; MEKK1ca (Table 1B: MEKK1) coexpressed, Table 1): ++ (MEKK1ca)
Trans-SUMOylation (U-p38α; western blot, Table 1): +
Trans-SUMOylation (MK2-U; MEKK1 coexpressed, Table 2): ++ (MEKK1)
Trans-SUMOylation (MK2-U; western blot, Table 2): +

Further lines, with some results ahead:

SUMOylation of STAT1-FKBP (STAT1-FRB and STAT1-FKBP; STAT1-FKBP in combination with Ubc9-FRB and EGFP-SUMO1, AP21967): induced SUMOylation
SUMOylation of STAT1-FRB (STAT1-FRB and STAT1-FKBP; STAT1-FRB coexpressed with Ubc9-FKBP and EGFP-SUMO1, AP21967 1 μM, western blot α-STAT1): strongly enhanced SUMOylation
Compound: CO[C@H]1[C@@H](O)[C@H](C)C[C@H](C)/C=C/C=C/C=C(\C)[C@@H](c2c[nH]c3c(C)cccc23)C[C@@H]2CC[C@@H](C)[C@@](O)(O2)C(=O)C(=O)N2CCCC[C@H]2C(=O)O[C@H]([C@H](C)C[C@@H]2CC[C@@H](O)[C@H](OC)C2)C[C@H](O)[C@H](C)/C=C(\C)[C@H]1O [AP21967]
SUMOylation of p53-FKBP (p53-FRB and p53-FKBP; p53-FKBP in combination with Ubc9-FRB and EGFP-SUMO1, AP21967): induced SUMOylation
SUMOylation of p53-FRB (p53-FRB and p53-FKBP; p53-FRB coexpressed with Ubc9-FKBP and EGFP-SUMO1, AP21967 1 μM, western blot α-p53): strongly enhanced SUMOylation

Trans-SUMOylation (p53-U; [1]): −
Trans-SUMOylation (U-MK2; western blot, Table 2): +
Trans-SUMOylation (U-p38α; western blot, Table 1): +
Compound: ERK1: ERK1, protein 2 construct without tag

Trans-SUMOylation (U-MK5; Table 1): +
Trans-SUMOylation (U-MK2; western blot, Table 2): −
Trans-SUMOylation (U-p38α; western blot, Table 2): −
Compound: GST-ERK3: ERK3 fused to GST tag

Trans-SUMOylation (U-PSMC3): +
Trans-SUMOylation (MK2-U; western blot, Table 2): −
Compound: GST-PSMC3: PSMC3 fused to GST tag

Trans-SUMOylation (CSNK2B-U): + (MEKK1ca)
Compound: HA-CSNK2B: CSNK2B fused to HA tag

Reference: patent US8551717B2, “Method for determining sumoylation” (Medizinische Hochschule Hannover, priority 2008, dated 2013)
